Source: patent publication US20230091315A1 (CISBIO BIOASSAYS, published 2023)

Assays:
[1] = target: T1, human Gα12 fused in its N-terminal part with the tags Twin-Strep-tag and FLAG, overexpressed in HEK293 cells (human, UniProt Q03113 1-381); test: HTRF on HEK293 cells overexpressing the TST-Flag-tagged Gα: antibody-d2 (10 nM) + anti-Twin-Strep-tag-Lumi4 Tb, in buffer, GDP 10 µM or GTPγS 10 µM
T1 construct: not shown: N-terminal Twin-Strep-tag and FLAG tags
T1 sequence (looked up): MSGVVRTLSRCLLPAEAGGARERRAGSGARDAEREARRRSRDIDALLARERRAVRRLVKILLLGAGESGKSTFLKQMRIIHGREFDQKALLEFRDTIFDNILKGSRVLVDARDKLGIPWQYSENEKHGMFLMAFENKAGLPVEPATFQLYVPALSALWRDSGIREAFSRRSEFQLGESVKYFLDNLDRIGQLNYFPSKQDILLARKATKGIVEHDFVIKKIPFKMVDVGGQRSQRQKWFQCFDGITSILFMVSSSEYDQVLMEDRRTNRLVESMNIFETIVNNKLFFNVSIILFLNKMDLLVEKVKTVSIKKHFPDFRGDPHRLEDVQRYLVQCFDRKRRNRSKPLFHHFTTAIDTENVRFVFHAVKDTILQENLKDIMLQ

[2] = target: T2, human Gαq fused in its N-terminal part with the tags Twin-Strep-tag and FLAG, overexpressed in HEK293 cells (human, UniProt P50148 1-359); test: as above
T2 construct: not shown: N-terminal Twin-Strep-tag and FLAG tags
T2 sequence (looked up): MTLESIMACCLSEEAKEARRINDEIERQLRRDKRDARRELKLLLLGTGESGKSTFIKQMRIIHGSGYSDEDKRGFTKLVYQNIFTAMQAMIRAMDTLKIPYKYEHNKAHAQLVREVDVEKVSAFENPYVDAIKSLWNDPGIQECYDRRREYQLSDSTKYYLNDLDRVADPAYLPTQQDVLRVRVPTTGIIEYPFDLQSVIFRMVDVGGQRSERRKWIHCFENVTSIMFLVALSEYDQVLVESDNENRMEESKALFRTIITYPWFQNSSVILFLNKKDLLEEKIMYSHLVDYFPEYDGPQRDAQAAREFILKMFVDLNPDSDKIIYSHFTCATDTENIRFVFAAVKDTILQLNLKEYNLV

[3] = target: T3, human Gα13 fused in its N-terminal part with the tags Twin-Strep-tag and FLAG, overexpressed in HEK293 cells (human, UniProt Q14344 1-377); test: as above
T3 construct: not shown: N-terminal Twin-Strep-tag and FLAG tags
T3 sequence (looked up): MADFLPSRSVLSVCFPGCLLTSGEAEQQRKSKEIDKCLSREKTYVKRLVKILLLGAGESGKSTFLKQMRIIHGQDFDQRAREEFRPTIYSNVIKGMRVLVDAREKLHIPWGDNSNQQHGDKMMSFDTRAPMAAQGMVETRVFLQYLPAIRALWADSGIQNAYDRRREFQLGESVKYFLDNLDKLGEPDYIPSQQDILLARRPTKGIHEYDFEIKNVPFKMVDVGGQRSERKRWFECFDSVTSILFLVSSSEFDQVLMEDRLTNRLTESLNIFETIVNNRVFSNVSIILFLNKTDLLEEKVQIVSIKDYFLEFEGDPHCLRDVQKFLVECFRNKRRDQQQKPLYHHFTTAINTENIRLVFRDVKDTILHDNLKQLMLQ

[4] = target: T4, human Gαi2 fused in its N-terminal part with the tags Twin-Strep-tag and FLAG, overexpressed in HEK293 cells (human, UniProt P04899 1-355); test: HTRF on HEK293 cells overexpressing the TST-Flag-tagged Gα: antibody-d2 (10 nM) + anti-Twin-Strep-tag-Lumi4 Tb (0.5 nM), in buffer, GDP 10 µM or GTPγS 10 µM
T4 construct: not shown: N-terminal Twin-Strep-tag and FLAG tags
T4 sequence (P04899 whole entry, the tested form may be a part): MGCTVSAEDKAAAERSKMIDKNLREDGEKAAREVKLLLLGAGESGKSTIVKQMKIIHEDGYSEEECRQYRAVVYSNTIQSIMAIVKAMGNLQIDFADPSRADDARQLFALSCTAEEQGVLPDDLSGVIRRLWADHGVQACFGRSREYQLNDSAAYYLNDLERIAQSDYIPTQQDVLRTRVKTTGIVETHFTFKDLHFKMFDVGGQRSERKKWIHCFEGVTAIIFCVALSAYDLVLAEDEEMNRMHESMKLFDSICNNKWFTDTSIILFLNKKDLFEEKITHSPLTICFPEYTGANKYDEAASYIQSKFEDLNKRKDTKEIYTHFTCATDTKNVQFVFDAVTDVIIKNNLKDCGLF

[5] = target: T5, human Gαi3 fused in its N-terminal part with the tags Twin-Strep-tag and FLAG, overexpressed in HEK293 cells (human, UniProt P08754 1-354); test: as above
T5 construct: not shown: N-terminal Twin-Strep-tag and FLAG tags
T5 sequence (P08754 whole entry, the tested form may be a part): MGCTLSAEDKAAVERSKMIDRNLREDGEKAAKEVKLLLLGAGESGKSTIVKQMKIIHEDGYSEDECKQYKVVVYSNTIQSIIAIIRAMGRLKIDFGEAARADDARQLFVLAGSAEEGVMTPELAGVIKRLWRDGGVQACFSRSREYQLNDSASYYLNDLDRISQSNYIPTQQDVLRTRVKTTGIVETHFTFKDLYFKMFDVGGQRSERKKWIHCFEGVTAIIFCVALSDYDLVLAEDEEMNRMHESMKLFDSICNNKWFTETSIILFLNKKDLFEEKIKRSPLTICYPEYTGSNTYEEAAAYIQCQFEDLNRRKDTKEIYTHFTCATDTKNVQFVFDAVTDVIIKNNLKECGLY

[6] = target: T6, human Gαz fused in its N-terminal part with the tags Twin-Strep-tag and FLAG, overexpressed in HEK293 cells (human, UniProt P19086 1-355); test: as above
T6 construct: not shown: N-terminal Twin-Strep-tag and FLAG tags
T6 sequence (P19086 whole entry, the tested form may be a part): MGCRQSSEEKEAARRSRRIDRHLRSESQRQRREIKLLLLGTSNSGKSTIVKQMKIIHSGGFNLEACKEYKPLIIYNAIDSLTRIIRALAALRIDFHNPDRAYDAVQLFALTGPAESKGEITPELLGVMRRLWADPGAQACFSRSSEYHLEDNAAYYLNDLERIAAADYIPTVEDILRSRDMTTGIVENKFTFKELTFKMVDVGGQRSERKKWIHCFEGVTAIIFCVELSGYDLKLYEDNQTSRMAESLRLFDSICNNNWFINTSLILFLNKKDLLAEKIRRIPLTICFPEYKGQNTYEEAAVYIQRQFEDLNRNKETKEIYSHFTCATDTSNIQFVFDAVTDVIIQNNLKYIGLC

Measured: binding result

B1: antibody DSV36S (antibody, V domains shown)
VH: EVQLQQSGAELVRPGALVKLSCKASGFNIKDYYMHWVKQRPEQGLEWIGWIDPENGNTIYDPKFQGKASITADTSSNTAYLQLSSLTSEDTAVYYCTRGGGYYSDWYFDVWGAGTTVTVSS
VL: QIVLTQSPAIMSASPGEKVTMTCSASSSVSYMHWYQQKSGTSPKRWIYDTSKLASGVPARFSGSGSGTSYSLTISSMEAEDAATYYCQQWSSNPPITFGAGTKLELK
notes: Used unlabeled or labeled with d2 (acceptor) or Lumi4Tb (donor); also called DSV36S-d2; DSV36S-Lumi4Tb
no binding (tested: 10 nM): [1] | [2] | [3]
binds: all other assays above
